Results published in the supplement of paper PMC9170038.

What was measured:
MS2 coat protein = assay: apparent KD of MS2 coat protein; higher = weaker reporter binding; conditions: Eterna round: R107
Method: (§1)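 RNA-MaP round R107: designed RNA switches with theophylline, tryptophan, arginine or FMN aptamers are transcribed on-chip within common flanks. They are titrated with SNAP-549-labelled MS2 coat protein in RNA-MaP buffer (100 mM Tris pH 7.5, 80 mM KCl, 4 mM MgCl2), without ligand or with the indicated ligand. Median apparent KD per design.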

[1] = tested on: K4 kissing-loop RNA reporter; assay: apparent KD of K4 kissing-loop reporter; higher = weaker reporter binding; conditions: Eterna round: R107;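 further: bound reporter read as fluorescence of individual clusters on recovered sequencing chips by microscopy, with normalized cluster intensities fitted with a binding model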
Method: as §1, with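 “a labelled K4 kissing-loop RNA reporter” for “SNAP-549-labelled MS2 coat protein”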

[2] = input ligand: theophylline 20 uM
[3] = input ligand: tryptophan 2.4 mM

Row | Sequence | apparent KD of MS2 coat protein (MS2 coat protein; input ligand: arginine 13.2 mM) [nM] | apparent KD of MS2 coat protein (MS2 coat protein; input ligand: none) [nM] | apparent KD of MS2 coat protein (MS2 coat protein; [2]) [nM] | apparent KD of MS2 coat protein (MS2 coat protein; input ligand: theophylline 2 mM) [nM] | apparent KD of MS2 coat protein (MS2 coat protein; [3]) [nM] | apparent KD of K4 kissing-loop reporter ([1]; input ligand: FMN 200 uM) [nM] | apparent KD of K4 kissing-loop reporter ([1]; input ligand: arginine 13.2 mM) [nM] | apparent KD of K4 kissing-loop reporter ([1]; input ligand: none) [nM] | apparent KD of K4 kissing-loop reporter [1, 2] [nM] | apparent KD of K4 kissing-loop reporter [1, 3] [nM]
1 | ACAUGAGACAUGGAUACCAGCGACAUGAGGAUCACCCAUGUAUGAGGAUCACCCAUGUUAUGCCCUUGGCAGCCACAAACAUGAG [.PLMULLINP] | 19.8 | 13.9 | 30.8 | 147 | 15.2 | – | – | – | – | –
2 | AAAUAAAGCAGUCAUCCAGUGAUGUUGGAAGGAGCGUGCGAAAGCACAGGUAGGUCGCCAAAACCUAAUAAUGGCUGCUAAAUAA [#SwitchBubble 2 #K4Early] | – | – | – | – | – | 170 | 211 | 176 | 210 | 141
3 | GUGGUACAGGCGGCCGCCACUAGUGAUGUUAGUGAUAGAAGAUAUAGUAUAUAUCGGCAUUUAGUUAGGACCGGGCCUGGUGGUG [wwwrcmullin] | – | – | – | – | – | 424 | 316 | 360 | 367 | 337
4 | UAUCAGAUUACUGAUACCAGUCUAAAGACAGUGAUGUUGUCUGAUCGACCACGAUCAAAGGACCCUUGGCAGCAGUAUACUAUUC [Theo B SS t5] | – | – | – | – | – | 163 | 157 | 157 | 164 | 158
5 | GGAUAGGACACAGGAUAUGGUAGUGAUGUUACCAAACUGGUUAAACAUGUCAGAAAACUGGCAUGACCAGAAGGGUGUCCUAUCG [FmnBX 27 C11+G75] | – | – | – | – | – | 83.4 | 63.8 | 66.2 | 71 | 63.8
6 | GGUGCUGUCUGUGCCGCCUUCCUCGUUCCUCGAGGACCGGUACGGCCGCCACUCGAGUGAUGUUUGGGUAGCGAUCCCUGCUAGC [Bdazzled - #15 Exc. Tryptophan A] | – | – | – | – | – | 1010 | 737 | 1180 | 1030 | 917
7 | GUUACGCAUGGAAGGAGCGCUCUCCGGCUUAAUAACACAGUGAUGUUGUGAAUUUGCCGAAAGCAGGUAGGUCGCCAUGUGUAAC [Ex Arginine B K4 10] | – | – | – | – | – | 474 | 359 | 453 | 435 | 413
8 | AAUUAAUACAGAAGGAGCGUGAAAUUAUCUAUUUUUUUUUUAGCUAGUGAUGUUAGCAUUUCACAGGUAGGUCGCUGUAUAUUUA [JR_SSArginiB_Sub009] | – | – | – | – | – | 148 | 142 | 166 | 149 | 138
9 | AAUAGAUCAUUAUAGUGAUAAAUGCCUGAUACCAGUGAGAGAUGGCACCCUUGGCAGCAGAGAUGAGUGAUGUUCAGACUGUAAA [theeternabot_sameState_KL_Theo_A_11] | – | – | – | – | – | 114 | 118 | 104 | 123 | 91
10 | AACUGUCGAGGACAACAUUACUGAGGUGAUACCAGCAUCGAAAGAUGCCCUUGGCAGCACCAACUUGCAGUGAUGUUGCAAGUAA [BrourdMod 9 - Jieux - Exclusion - Theophylline A] | – | – | – | – | – | 356 | 324 | 343 | 473 | 314
11 | GGCCCGGGCGCGGCCGCCACUCCCUCGUACCGAAAGGUAUGAUACCGAGUGAUGUUCGGUUGGAGGAGGACCGGGCGCCCGGGCC [#2 Exclusion - Tryptophan B Attempt #4 (HarryS)] | – | – | – | – | – | 140 | 129 | 105 | 80.7 | 152
12 | AGACCACAAAGUGGUCAGUGUUCGCUCCGGCGAGGACCGGUACGGCCGCCACUCGCGAGUGAUGUUCGCGAGCGGAGCGAACACA [Omei KL Tryp A Exc A v2] | – | – | – | – | – | 101 | 86.6 | 99.9 | 88.9 | 95.1
13 | UCGGGAGGCCGAAGGAGCGCCGCCAGUGAUGUUGGGAGUUAGAUACCAGUGAUGUUGGGCCGGCAGGUAGGUCGCGGCCGCGGAU [Exclusion Arginine B Gf 18] | – | – | – | – | – | 201 | 106 | 147 | 168 | 153
14 | UGAUAGGACAGAAGGAGCGGUAGUGAUGUUGCCAAAAGGGUAAGGUGUCAAAAGACACCCUGCCAGGUAGGUCGCUGUCCUAUCU | – | – | – | – | – | 99.7 | 93.8 | 98.5 | 96.6 | 81.9
15 | AAUAAAAUCACGGCCGCCACUGAUUAGCAUAUUAGGAGUGAUGUUUCUAUGACUAUAUAAUUGAACAGGACCGGGUGAAUAUUUA [#20 K4 Tryptophan B Exclusion] | – | – | – | – | – | 424 | 294 | 417 | 314 | 400
16 | UGUCAUUGGUCGGCCGCCACUCCAUAAUGAGUGAUGUUCUAAAAGACGGAUCGAAAGAUCUGUCGGAGGACCGGGACCGAUGACU [FiskerMod 5 - Jieux - Same State - Tryptophan B] | – | – | – | – | – | 566 | 456 | 680 | 799 | 267
17 | UGACUGGACUGAAGGAGCGCGCGAGACAAAGUCUCGAACUUCUAGUGAUGUUAGAAAAUAACGCAGGUAGGUCGCAGUCUAGUCU | – | – | – | – | – | 165 | 137 | 152 | 147 | 147
18 | AGACUACCACACUGUCAAUAGACAGUGUACUAGGAUAUGCUGAUAAGCAGAAGGAGUGAUGUUCCCAGGUAGUCAAUAAAAUAAU [FmnAX 13 U28+C66] | – | – | – | – | – | 274 | 189 | 243 | 270 | 225
19 | UUAGUACAUAGAGAUACCAGCCAUCGAAGUGAUGUUUCGAGAAAUAAUGAUGUUGGUAUAGGCCCUUGGCAGCUCUAUGUACAUU [AK1 Exc Theophylline B] | – | – | – | – | – | 103 | 95.4 | 104 | 94.7 | 97.4
20 | CCGGAGGAAGUCGCUUUUCCUGUGGCAUAGAAGGAUAUCCAAUUAAGGAGAAGGUCUAUCUGCCUUAGUGAUGUUAGGAAGUAGA [theeternabot_sameState_KL_FMN_A_23] | – | – | – | – | – | 172 | 89.1 | 135 | 162 | 167
